{"source": "patent US20240262791A1", "about": "(University of California, published 2024)", "binders": {"B1": {"name": "Wildtype SR4 nanobody (VHH)", "VHH": "QVQLVESGGGLVQAGGSLRLSCAASGFPVYSWNMWWYRQAPGKEREWVAAIESHGDSTRYADSVKGRFTISRDNAKNTVYLQMNSLKPEDTAVYYCYVWVGHTYYGQGTQVTVSA"}}, "molecular_target": "Spike protein on SARS-CoV-2 GFP Reporter Virus Particles (pseudotyped lentivirus), wild-type strain (SARS-CoV-2, UniProt P0DTC2 14-1273)", "assay": "cell-based or functional assay"}
{"binder": "B1", "values": [{"measurement": "IC50, inhibition of pseudovirus infection of 293T-ACE2 cells", "result": 550, "unit": "nM"}]}
